Laboratory results as given in paper PMC11096400 (Scientific Reports, 2024).

Substrate: N[C@@H](CCC(=O)O)C(=O)O
Test: purified protein
Conditions: 0.1-1.0 mM NADP, 50 mM Tris, pH 7.5, 293 K, 20.0 °C

B1: glutamate dehydrogenase (GDH) (Thermococcus profundus) (protein)
chain: MVEIDPFEMAVKQLERAAQYMDISEEALEWLKKPMRIVEVSVPIEMDDGSVKVFTGFRVQHNWARGPTKGGIRWHPAETLSTVKALATWMTWKVAVVDLPYGGGKGGIIVNPKELSEREQERLARAYIRAVYDVIGPWTDIPAPDVYTNPKIMGWMMDEYETIMRRKGPAFGVITGKPLSIGGSLGRGTATAQGAIFTIREAAKALGIDLKGKKIAVQGYGNAGYYTAKLAKEQLGMTVVAVSDSRGGIYNPDGLDPDEVLKWKREHGSVKDFPGATNITNEELLELEVDVLAPAAIEEVITEKNADNIKAKIVAEVANGPVTPEADDILREKGILQIPDFLCNAGGVTVSYFEWVQNINGYYWTEEEVREKLDKKMTKAFWEVYNTHKDKNIHMRDAAYVVAVSRVYQAMKDRGWVKK
Q: B1 was tested. Which Km did it give?
A: 2380 ± 24 µM

Q: What about the kcat of the same protein?
A: 2.78 ± 0.00 s⁻¹
